For 5 substances, percent unbound DNA (% unbound DNA) results are on record in PMC5936033.

This series deals with GST-VP1 (Chicken anaemia virus (strain CAU269/7?)). Briefly: EMSA (agarose). Particulars: 50 mM Tris-HCl pH 7.5, 120 mM KCl, 1.0 mM EDTA, 0.5 mM DTT, 30 mg/ml BSA (so in the source); 100 ng DNA in 20 ul, 37 C, 30 min (Results: 1 h); 0.8% agarose/TAE. Text …. (In general: In EMSA bound probe runs differently from free probe, usually more slowly.)

Substance CAV genome minus-strand linear ssDNA registered a percent unbound DNA (% unbound DNA) of 53.3.

Take M13mp18 ssDNA: the percent unbound DNA (% unbound DNA) is 46.5.

The substance linear pcDNA3.1 (EcoRI) returned a percent unbound DNA (% unbound DNA) of 84.7.

With pCAV, open circular (form I), the percent unbound DNA (% unbound DNA) came to 59.6.

With pCAV, supercoiled (form II), the percent unbound DNA (% unbound DNA) is 82.6.
